Source: US20210155670A1, “SYSTEMS AND METHODS FOR THE PREPARATION OF PEPTIDE-MHC-I COMPLEXES WITH NATIVE GLYCAN MODIFICATIONS” (The Regents of the University of California, priority 2019, published 2021)

Target: T cell receptor specific for HLA-A*02:01/NYESO, on Jurkat cells / NY-ESO-1 specific T cell line
Assay: flow cytometry, PE tetramer staining; the negative cells are said to have lost the TCR

| tetramer-negative population of cells | Substance |
| --- | --- |
| 9% | CHO-derived PE-HLA-A*02:01 tetramer loaded with NY-ESO-1 peptide (single-chain complex, TAPBPR-exchanged) (peptide-MHC) |
| 9% | conventionally refolded NYESO/HLA-A*02:01 tetramer (from UniProt P61769 21-119) (peptide-MHC) |
